T1: THOC6-FLAG (UniProt Q86W42 1-341)
T1 sequence: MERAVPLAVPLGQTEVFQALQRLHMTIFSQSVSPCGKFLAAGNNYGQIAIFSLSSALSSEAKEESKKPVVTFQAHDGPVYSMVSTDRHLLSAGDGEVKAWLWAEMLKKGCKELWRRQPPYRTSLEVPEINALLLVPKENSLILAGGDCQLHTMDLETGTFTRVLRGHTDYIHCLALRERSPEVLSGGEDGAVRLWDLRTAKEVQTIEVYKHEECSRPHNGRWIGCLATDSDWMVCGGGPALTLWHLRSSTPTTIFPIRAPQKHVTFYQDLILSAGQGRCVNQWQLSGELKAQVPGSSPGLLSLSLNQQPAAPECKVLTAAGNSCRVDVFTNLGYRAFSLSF

T2: GST-THOC6 WT (UniProt Q86W42 1-341)
T2 sequence: T1 sequence

B1: OSD (OS4D; OS-ssDNA + OS-ssRNA) (DNA:RNA)
DNA: CGCCCTCCCGCCCCCTCGGGGCCCCGCCCCTGGGCCTCTCAGGCCCCTCCCCTGCGCTCC
RNA: GGAGCGCAGGGGAGGGGCCUGAGAGGCCCAGGGGCGGGGCCCCGAGGGGGCGGGAGGGCG
B2: C4D (C4-ssDNA + C4-ssRNA) (DNA:RNA)
DNA: CCCGGGAGGCGGAGGTTGCAGTGAACCAAGATCGCGCCATTGCACTCCAGCCTGGG
RNA: CCCAGGCUGGAGUGCAAUGGCGCGAUCUUGGUUCACUGCAACCUCCGCCUCCCGGG

Assays:
THOC6-FLAG [1] = target: T1, THOC6-FLAG; assay: streptavidin pull-down; 4 C overnight or 37 C; EMSA: 20 mM Tris pH 7.5, 2 mM DTT, 12 mM MgCl2, 100 mM NaCl, 10% glycerol, 30 min RT; pull-downs: 4 C overnight or 37 C 2 h (Fig S5A: 4 h), buffer not given in; details: protein: recombinant; tags: C-terminal FLAG (DYK); label: 5' biotin on DNA or RNA strand; blunt
GST-THOC6 WT = target: T2, GST-THOC6 WT; assay: streptavidin pull-down; EMSA: 20 mM Tris pH 7.5, 2 mM DTT, 12 mM MgCl2, 100 mM NaCl, 10% glycerol, 30 min RT; pull-downs: 4 C overnight or 37 C 2 h (Fig S5A: 4 h), buffer not given in; details: protein: recombinant; tags: GST (pGEX-4T1), FLAG; label: 5' biotin on DNA or RNA strand; blunt
THOC6-FLAG [2] = target: T1, THOC6-FLAG; assay: streptavidin pull-down; 4 C overnight or 37 C 2 h; EMSA: 20 mM Tris pH 7.5, 2 mM DTT, 12 mM MgCl2, 100 mM NaCl, 10% glycerol, 30 min RT; pull-downs: 4 C overnight or 37 C 2 h (Fig S5A: 4 h), buffer not given in; details: protein: recombinant; tags: C-terminal FLAG (DYK); label: 5' biotin on DNA or RNA strand; blunt

| Binder | binding result (THOC6-FLAG [1]) | binding result (GST-THOC6 WT) | binding result (THOC6-FLAG [2]) |
| --- | --- | --- | --- |
| B1 | binds |  |  |
| B2 |  | binds | binds |

From publication PMC9800341, “THOC5 complexes with DDX5, DDX17, and CDK12 to regulate R loop structures and transcription elongation rate”
